Source: the supplement of paper PMC5998384

Key:
[1] = test system: HeLa Kyoto; assay: solubility in G1/S (NP-40 vs SDS abundance) (log2 ratio); higher = more soluble; settings: cell cycle stage: G1/S
[2] = test system: HeLa Kyoto; assay: melting temperature (median over replicates), in situ; higher = more thermally stable
[3] = test system: HeLa Kyoto; assay: solubility change mitosis vs G1/S (difference of NP-40 vs SDS log2 ratios) (log2 ratio difference); higher = more soluble in mitosis
[4] = test system: HeLa Kyoto; assay: thermal stability score vs G1/S (z-score of summed log2 fold changes over temperatures); higher = more thermally stable than in G1/S
[5] = cell cycle stage: early G1 (4.5 h after nocodazole release)
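For melting temperature (median over replicates), in situ in this document: HeLa Kyoto cells synchronized by double thymidine or nocodazole block, proteins quantified by TMT10plex mass spectrometry, three independent biological replicates.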
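For solubility change mitosis vs G1/S (difference of NP-40 vs SDS log2 ratios) in this document: synchronized HeLa Kyoto cells (double thymidine block for G1/S, nocodazole release for mitosis), protein amounts in NP-40 versus SDS lysates quantified by mass spectrometry, three biological replicates.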
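For solubility in G1/S (NP-40 vs SDS abundance) in this document: HeLa Kyoto cells arrested at G1/S by double thymidine block, proteins quantified by TMT10plex mass spectrometry in mild NP-40 versus SDS extracts, three biological replicates.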
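For thermal stability score vs G1/S (z-score of summed log2 fold changes over temperatures) in this document: synchronized HeLa Kyoto cells, proteins quantified by TMT10plex mass spectrometry, three biological replicates, mitosis taken 0.5 h after nocodazole release, G1/S directly after double thymidine block.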

Sequence | solubility in G1/S (log2) [1] | melting temperature ([2]; cell cycle stage: G1/S) [°C] | melting temperature ([2]; cell cycle stage: mitosis) [°C] | solubility change mitosis (log2) [3] | thermal stability score [4, 5] | thermal stability score ([4]; cell cycle stage: mitosis)
MPAVASVPKELYLSSSLKDLNKKTEVKPEKISTKSYVHSALKIFKTAEECRLDRDEERAYVLYMKYVTVYNLIKKRPDFKQQQDYFHSILGPGNIKKAVEEAERLSESLKLRYEEAEVRKKLEEKDRQEEAQRLQQKRQETGREDGGTLAKGSLENVLDSKDKTQKSNGEKNEKCETKEKGAITAKELYTMMTDKNISLIIMDARRMQDYQDSCILHSLSVPEEAISPGVTASWIEAHLPDDSKDTWKKRGNVEYVVLLDWFSSAKDLQIGTTLRSLKDALFKWESKTVLRNEPLVLEGGYENWLLCYPQYTTNAKVTPPPRRQNEEVSISLDFTYPSLEESIPSKPAAQTPPASIEVDENIELISGQNERMGPLNISTPVEPVAASKSDVSPIIQPVPSIKNVPQIDRTKKPAVKLPEEHRIKSESTNHEQQSPQSGKVIPDRSTKPVVFSPTLMLTDEEKARIHAETALLMEKNKQEKELRERQQEEQKEKLRKEEQEQKAKKKQEAEENEITEKQQKAKEEMEKKESEQAKKEDKETSAKRGKEITGVKRQSKSEHETSDAKKSVEDRGKRCPTPEIQKKSTGDVPHTSVTGDSGSGKPFKIKGQPESGILRTGTFREDTDDTERNKAQREPLTRARSEEMGRIVPGLPSGWAKFLDPITGTFRYYHSPTNTVHMYPPEMAPSSAPPSTPPTHKAKPQIPAERDREPSKLKRSYSSPDITQAIQEEEKRKPTVTPTVNRENKPTCYPKAEISRLSASQIRNLNPVFGGSGPALTGLRNLGNTCYMNSILQCLCNAPHLADYFNRNCYQDDINRSNLLGHKGEVAEEFGIIMKALWTGQYRYISPKDFKITIGKINDQFAGYSQQDSQELLLFLMDGLHEDLNKADNRKRYKEENNDHLDDFKAAEHAWQKHKQLNESIIVALFQGQFKSTVQCLTCHKKSRTFEAFMYLSLPLASTSKCTLQDCLRLFSKEEKLTDNNRFYCSHCRARRDSLKKIEIWKLPPVLLVHLKRFSYDGRWKQKLQTSVDFPLENLDLSQYVIGPKNNLKKYNLFSVSNHYGGLDGGHYTAYCKNAARQRWFKFDDHEVSDISVSSVKSSAAYILFYTSLGPRVTDVAT [USP8] | -0.121 | 49.2 | 49.3 | -0.0263 | -0.07 | -0.00341
MPAVLGFEGSANKIGVGVVRDGKVLANPRRTYVTPPGTGFLPGDTARHHRAVILDLLQEALTESGLTSQDIDCIAYTKGPGMGAPLVSVAVVARTVAQLWNKPLVGVNHCIGHIEMGRLITGATSPTVLYVSGGNTQVIAYSEHRYRIFGETIDIAVGNCLDRFARVLKISNDPSPGYNIEQMAKRGKKLVELPYTVKGMDVSFSGILSFIEDVAHRMLATGECTPEDLCFSLQETVFAMLVEITERAMAHCGSQEALIVGGVGCNVRLQEMMATMCQERGARLFATDERFCIDNGAMIAQAGWEMFRAGHRTPLSDSGVTQRYRTDEVEVTWRD [OSGEP] | 0.0103 | 55.5 | 55.4 | -0.136 | 0.00035 | -1.39
MPAVSLPPKENALFKRILRCYEHKQYRNGLKFCKQILSNPKFAEHGETLAMKGLTLNCLGKKEEAYELVRRGLRNDLKSHVCWHVYGLLQRSDKKYDEAIKCYRNALKWDKDNLQILRDLSLLQIQMRDLEGYRETRYQLLQLRPAQRASWIGYAIAYHLLEDYEMAAKILEEFRKTQQTSPDKVDYEYSELLLYQNQVLREAGLYREALEHLCTYEKQICDKLAVEETKGELLLQLCRLEDAADVYRGLQERNPENWAYYKGLEKALKPANMLERLKIYEEAWTKYPRGLVPRRLPLNFLSGEKFKECLDKFLRMNFSKGCPPVFNTLRSLYKDKEKVAIIEELVVGYETSLKSCRLFNPNDDGKEEPPTTLLWVQYYLAQHYDKIGQPSIALEYINTAIESTPTLIELFLVKAKIYKHAGNIKEAARWMDEAQALDTADRFINSKCAKYMLKANLIKEAEEMCSKFTREGTSAVENLNEMQCMWFQTECAQAYKAMNKFGEALKKCHEIERHFIEITDDQFDFHTYCMRKITLRSYVDLLKLEDVLRQHPFYFKAARIAIEIYLKLHDNPLTDENKEHEADTANMSDKELKKLRNKQRRAQKKAQIEEEKKNAEKEKQQRNQKKKKDDDDEEIGGPKEELIPEKLAKVETPLEEAIKFLTPLKNLVKNKIETHLFAFEIYFRKEKFLLMLQSVKRAFAIDSSHPWLHECMIRLFNTAVCESKDLSDTVRTVLKQEMNRLFGATNPKNFNETFLKRNSDSLPHRLSAAKMVYYLDPSSQKRAIELATTLDESLTNRNLQTCMEVLEALYDGSLGDCKEAAEIYRANCHKLFPYALAFMPPGYEEDMKITVNGDSSAEAEELANEI [NAA15] | -0.262 | 53.9 | 52.5 | -0.124 | 0.92 | -0.18
MPFPVTTQGSQQTQPPQKHYGITSPISLAAPKETDCVLTQKLIETLKPFGVFEEEEELQRRILILGKLNNLVKEWIREISESKNLPQSVIENVGGKIFTFGSYRLGVHTKGADIDALCVAPRHVDRSDFFTSFYDKLKLQEEVKDLRAVEEAFVPVIKLCFDGIEIDILFARLALQTIPEDLDLRDDSLLKNLDIRCIRSLNGCRVTDEILHLVPNIDNFRLTLRAIKLWAKRHNIYSNILGFLGGVSWAMLVARTCQLYPNAIASTLVHKFFLVFSKWEWPNPVLLKQPEECNLNLPVWDPRVNPSDRYHLMPIITPAYPQQNSTYNVSVSTRMVMVEEFKQGLAITDEILLSKAEWSKLFEAPNFFQKYKHYIVLLASAPTEKQRLEWVGLVESKIRILVGSLEKNEFITLAHVNPQSFPAPKENPDKEEFRTMWVIGLVFKKTENSENLSVDLTYDIQSFTDTVYRQAINSKMFEVDMKIAAMHVKRKQLHQLLPNHVLQKKKKHSTEGVKLTALNDSSLDLSMDSDNSMSVPSPTSATKTSPLNSSGSSQGRNSPAPAVTAASVTNIQATEVSVPQVNSSESSGGTSSESIPQTATQPAISPPPKPTVSRVVSSTRLVNPPPRSSGNAATSGNAATKIPTPIVGVKRTSSPHKEESPKKTKTEEDETSEDANCLALSGHDKTEAKEQLDTETSTTQSETIQTAASLLASQKTSSTDLSDIPALPANPIPVIKNSIKLRLNR [PAPOLA] | 0.109 | 51.6 | 52 | -0.238 | 1.44 | 1.67
